The record followed here is paper PMC6412877, “Novel Site-Specific Fatty Chain-Modified GLP-1 Receptor Agonist with Potent Antidiabetic Effects” (Molecules, 2019).

The target of this assay is Glucagon-like peptide-1 receptor extracellular domain. As to the kind of experiment: SPR; Biacore 8K, according to the user's manual; who was immobilised and the conditions are not stated. On the technique in general: Surface plasmon resonance follows binding to a sensor surface in real time, without labels.
KEYSSPAATQRF [PEP02] returned a dissociation constant Kd of 1050 nM.

Consider YSHAYLEETQRFGGPSSGAPPPS [PEP11], for which the Kd was found to be 1250 nM.

For KQYSSPTAWLVG [PEP03], the Kd was 1750 nM. The Kd values of the last two molecules are within 1.5-fold of each other.

As to FFYSSPSAYLETGGPSSGAPPPS [PEP07], the Kd worked out at 24 nM. Compared with the last molecule, the Kd is about 73-fold lower.

With FFYSSPSAYLET [PEP01], the Kd was determined as 740 nM.

In the case of FTSEGTSSYLET [PEP04], the Kd was 3990 nM.

Regarding KEYSSPAATQRFGGPSSGAPPPS [PEP08], the Kd amounted to 151 nM.

Turning to EFIATAWLVKQTGGPSSGAPPPS [PEP12], the Kd was 1090 nM. This Kd is about 7.2-fold higher than that of the molecule before.

For FTSEGTSSYLETGGPSSGAPPPS [PEP10], the Kd is 3000 nM. Against the preceding molecule, the Kd is about 2.8-fold higher.

The molecule EFIATAWLVKQT [PEP06] yielded a Kd of 2590 nM.

The molecule YSHAYLEETQRF [PEP05] yielded a Kd of 2210 nM.

The Kd is a measure of binding affinity in units of concentration.
